T1: β3 integrin mutant in which the identical region of the β1 integrin was substituted for the 8 amino acid … (UniProt P05106 27-788)
T1 construct: whole, on cells; also called mutant protein; β3 mutant
T1 sequence (looked up): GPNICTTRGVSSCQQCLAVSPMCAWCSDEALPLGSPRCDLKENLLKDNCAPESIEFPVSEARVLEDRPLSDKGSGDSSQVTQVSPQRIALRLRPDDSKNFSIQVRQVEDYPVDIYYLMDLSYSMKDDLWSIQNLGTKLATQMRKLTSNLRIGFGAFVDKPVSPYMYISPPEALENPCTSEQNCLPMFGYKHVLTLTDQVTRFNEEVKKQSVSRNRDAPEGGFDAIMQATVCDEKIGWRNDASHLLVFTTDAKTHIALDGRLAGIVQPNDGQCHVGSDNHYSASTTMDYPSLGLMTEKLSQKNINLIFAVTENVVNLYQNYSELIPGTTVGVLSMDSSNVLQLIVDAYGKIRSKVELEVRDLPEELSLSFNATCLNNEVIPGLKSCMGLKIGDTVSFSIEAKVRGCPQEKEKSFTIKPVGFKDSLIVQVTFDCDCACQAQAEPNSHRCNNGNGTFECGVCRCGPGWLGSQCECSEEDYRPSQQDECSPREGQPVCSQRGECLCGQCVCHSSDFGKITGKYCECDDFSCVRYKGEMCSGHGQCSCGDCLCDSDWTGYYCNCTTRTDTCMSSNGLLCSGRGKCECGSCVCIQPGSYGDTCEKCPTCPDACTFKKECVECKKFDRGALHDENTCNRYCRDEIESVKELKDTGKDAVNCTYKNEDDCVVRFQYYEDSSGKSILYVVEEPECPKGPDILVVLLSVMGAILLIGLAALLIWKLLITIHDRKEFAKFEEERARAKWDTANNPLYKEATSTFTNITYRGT


Target: T1, β3 integrin mutant in which the …
Test: binding assay on CHO cells expressing the mutant β3

Row | Binder | binding result
1 | connective tissue growth factor (ligand, UniProt P29279 27-349, looked up) QNCSGPCRCPDEPAPRCPAGVSLVLDGCGCCRVCAKQLGELCTERDPCDPHKGLFCHFGSPANRKIGVCTAKDGAPCIFGGTVYRSGESFQSSCKYQCTCLDGAVGCMPLCSMDVRLPSPDCPFPRRVKLPGKCCEEWVCDEPKDQTVVGPALAAYRLEDTFGPDPTMIRANCLVQTTEWSACSKTCGMGISTRVTNDNASCRLEKQSRLCMVRPCEADLEENIKKGKKCIRTPKISKPIKFELSGCTSMKTYRAKFCGVCTDGRCCTPHRTTTLPVEFKCPDGEVMKKNMMFIKTCACHYNCPGDNDIFESLYYRKMYGDMA | no binding
2 | heparin binding epidermal growth factor (ligand, UniProt Q99075 63-148, looked up) DLQEADLDLLRVTLSSKPQALATPNKEEHGKRKKKGKGLGKKRDPCLRKYKDFCIHGECKYVKELRAPSCICHPGYHGERCHGLSL | no binding
3 | vitronectin (ligand, UniProt P04004 20-478, looked up) DQESCKGRCTEGFNVDKKCQCDELCSYYQSCCTDYTAECKPQVTRGDVFTMPEDEYTVYDDGEEKNNATVHEQVGGPSLTSDLQAQSKGNPEQTPVLKPEEEAPAPEVGASKPEGIDSRPETLHPGRPQPPAEEELCSGKPFDAFTDLKNGSLFAFRGQYCYELDEKAVRPGYPKLIRDVWGIEGPIDAAFTRINCQGKTYLFKGSQYWRFEDGVLDPDYPRNISDGFDGIPDNVDAALALPAHSYSGRERVYFFKGKQYWEYQFQHQPSQEECEGSSLSAVFEHFAMMQRDSWEDIFELLFWGRTSAGTRQPQFISRDWHGVPGQVDAAMAGRIYISGMAPRPSLAKKQRFRHRNRKGYRSQRGHSRGRNQNSRRPSRATWLSLFSSEESNLGANNYDDYRMDWLVPATCEPIQSVFFFSGDKYYRVNLRTRRVDTVDPPYPRSIAQYWLGCPAPGHL | no binding
4 | osteopontin (ligand) not shown | no binding

Source: US20050288217A1 (UNIVERSITY OF NORTH CAROLINA AT CHAPEL HILL, published 2005)
